Results published in publication PMC7153837.
pKd: −log10 of the molar value.

Molecular target: B10v5xhu225L, c-METxEGFR bispecific SEED antibody reconstituted by Npu DnaE protein trans-splicing
Assay: BLI

A pKd of 6.66 was found for “EGFR (EGF receptor), recombinant antigen (from UniProt P00533 25-1210)” in this work.
